Source: the supplement of paper PMC10567573
± gives the standard deviation.

Test: protein stability index of a GFP-peptide fusion (GPS, HEK-293T) (PSI 1-6); higher = more stable
[1] = treatment: DMSO, c terminus: a fixed tail appended
[2] = treatment: MLN4924 1 uM, 8 h, c terminus: a fixed tail appended
[3] = treatment: DMSO, c terminus: native
[4] = treatment: MLN4924 1 uM, 8 h, c terminus: native
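Further: 24-mer peptide tiles fused after GFP, lentivirally expressed, FACS-sorted into six equal bins by GFP/DsRed ratio, decoded by Illumina sequencing, PSI is the read-weighted mean bin number.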

Row | Sequence | protein stability index [1] | protein stability index [2] | protein stability index [3] | protein stability index [4]
1 | YFHINQTLREAHFHSLQHRGRPLT [FAM104A] | 2.96 ± 0.15 | 3.21 ± 0.31 |  | 
2 | DYSASEYRWHINFTTFFIDCMAAL [SCD] | 2.54 ± 0.17 | 2.63 ± 0.47 |  | 
3 | PVYLLLELEDKDGLQSAQPTEGQG [MYBL2] | 3.88 ± 0.23 | 3.79 ± 0.058 |  | 
4 | WHPKPYCQALPYGPGYWMCCHRSQ [FBXO34] | 2.32 ± 0.37 | 2.08 ± 0.14 |  | 
5 | TGVYPRCLHASQWPVCAACPVRKF [BRF1] | 2.49 ± 0.17 | 2.45 ± 0.24 |  | 
6 | SIKKKFLKRKGKTDSPWIKPARKR [EHMT1] | 3.66 ± 0.082 | 3.71 ± 0.17 |  | 
7 | LQLEACGMRRKSLLTRKVICKSDA [GOLPH3] | 2.95 ± 0.58 | 3.07 ± 0.43 |  | 
8 | TSECPSDKDKSPESHKAKNESWIK [C10orf62] | 3.58 ± 0.65 | 4.18 ± 0.7 |  | 
9 | KAAALPPFPLGASAQNGLASSLPA [PLAGL1] | 3.75 ± 0.21 | 3.82 ± 0.21 |  | 
10 | AMYISQEEWGHQDPSKRALSRDTV [ZNF263] | 3.81 ± 0.12 | 4.06 ± 0.14 |  | 
11 | DMVEFLLEQCSASIEVGGSVNFDG [FEM1C] | 2.17 ± 0.76 | 2.4 ± 0.24 |  | 
12 | LRQQLVVSKELRMYDEKAHEWKSL [KLHL13] | 2.93 ± 0.11 | 2.98 ± 0.15 |  | 
13 | GAFLRTCLLSSNSRSLLTGGYNLA [TLE6] | 2.72 ± 0.32 | 2.79 ± 1.1 |  | 
14 | FVEKNPTIVNFPITNVDLREYLSE [USP39] | 2.73 ± 0.66 | 3.01 ± 1 |  | 
15 | LRRAWFSWPRASPASGASSIKPEA [SCNN1D] | 2.99 ± 0.18 | 3.04 ± 0.19 |  | 
16 | ATLPGIFMLLLIFFAFLHCWLNAF [SOAT2] | 2.46 ± 0.5 | 2.3 ± 0.36 |  | 
17 | AEDDHMLIQNEYRNGGSLADAISE [WEE1] | 5.06 ± 0.27 | 4.9 ± 0.43 |  | 
18 | GEAAGSSLIGHLQTLSPDMQGAYC [DUSP5] | 3.82 ± 0.34 | 3.87 ± 0.26 |  | 
19 | LRIPEGPIDQGPAIGRVRVLEEQL [FUT8] | 3.69 ± 0.37 | 3.85 ± 0.19 |  | 
20 | DVIQALDLSVPLMDVGETAMVTAD [FKBP8] | 3.41 ± 0.29 | 3.53 ± 0.19 |  | 
21 | LTVLPKLQARERGEEQVELSTIEE [C2CD2L] | 5.14 ± 0.17 | 4.96 ± 0.54 |  | 
22 | RDFDNNTPLHIAAQNNCPAIMNAL [FEM1A] | 3.36 ± 0.3 | 3.46 ± 0.41 |  | 
23 | GYIDPEELAEIFRASGEHVTDEEI [TNNC2] | 5.01 ± 0.87 | 4.99 ± 0.17 |  | 

Row | Sequence | protein stability index [1] | protein stability index [2] | protein stability index [3] | protein stability index [4]
24 | STCHAYSNTRDRYGRSWESYSSCG [RBMY1A1] | 2.29 ± 0.16 | 2.47 ± 0.37 |  | 
25 | PDITSSRYRGLPAPGPSPADKKRS [WAS] | 5.22 ± 0.097 | 5.271 ± 0.036 |  | 
26 | EHSWIKAIRRRNVRGEDSGRKPER [DAPK3] | 3.62 ± 1.7 | 4.07 ± 0.23 |  | 
27 | GGGFGGGSCQLGGGRGVSTCSTRF [KRT13] | 3.5 ± 0.17 | 3.59 ± 0.21 |  | 
28 | VFPIKHYQDKIRPYIQLPSHSNIT [TRIB1] | 2.5 ± 0.22 | 2.62 ± 0.22 |  | 
29 | RKPKVIECSYTSADGQRHHSKLLV [DHCR7] | 2.72 ± 0.13 | 2.93 ± 0.28 |  | 
30 | NNTGKNLELKFVSSLRRQFEFSVD [TENT5D] | 2.75 ± 0.42 | 2.75 ± 0.4 |  | 
31 | LNEMRDQYEKMAEKNRKDAEDWFF [KRT17] | 4.14 ± 0.2 | 4.1 ± 0.19 |  | 
32 | CPPPPGPAAAPEGDWARLLEQMGA [ZBED3] | 3.53 ± 0.18 | 3.58 ± 0.84 |  | 
33 | GSEKVTMQNLNDRLASYLDKVRAL [KRT16] | 2.88 ± 0.2 | 2.89 ± 0.25 |  | 
34 | AACLYLVCRTEGTPHMLLDLSDLL [BRF1] | 3.31 ± 0.47 | 2.85 ± 0.43 |  | 
35 | NCSIGPNVSLGPGVVVEDGVCIRR [GMPPB] | 4.29 ± 0.3 | 4.393 ± 0.043 |  | 
36 | LQRGEALSALDSKANNLSSLSKKY [SEC22B] | 4.46 ± 0.11 | 4.34 ± 0.23 |  | 
37 | IHGFPWWPARVLDISLGQKEDGEP [PWWP2B] | 3.05 ± 0.18 | 3.54 ± 0.4 |  | 
38 | PPNGPNLPMATVDIKNPEITTNRF [WASL] | 4.48 ± 0.15 | 4.16 ± 0.29 |  | 
39 | LLEKDYFGLTYRDAENQKNWLDPA [EPB41L3] | 3.1 ± 0.29 | 3.48 ± 0.29 |  | 
40 | NPEVGIFVSIAQSEQESLLQQAQA [SMG5] | 4.09 ± 0.3 | 4.23 ± 0.24 |  | 
41 | SNIDKKFSAHYDAVEAELKSSTVG [FAM50A] | 4.64 ± 0.18 | 4.83 ± 0.28 |  | 
42 | EKLKVAPPNADLEQGFQEGVPNAS [MFF] | 5.28 ± 0.17 | 5.22 ± 0.17 |  | 
43 | IKDKEAPLHVAQTRLYLRSHRPNM [TEKT4] | 3.23 ± 0.25 | 3.23 ± 0.25 |  | 
44 | LRALGAQIEKTTNREACRDLSGRR [SDE2] | 4.21 ± 0.15 | 4.48 ± 0.26 |  | 
45 | QSMSEEEREKVTPLMVKGFRDAAE [SEPHS2] | 5.01 ± 0.27 | 4.88 ± 0.24 |  | 
46 | PGGGRGALLDQIRQGIQLNKTPGA [WAS] | 5.3 ± 0.1 | 4.99 ± 0.47 |  | 

Row | Sequence | protein stability index [1] | protein stability index [2] | protein stability index [3] | protein stability index [4]
47 | AKKFMWRDSFMRHRGHCERRHRLG [ZBTB22] | 2.94 ± 0.23 | 3.1 ± 0.41 |  | 
48 | VAELFCRRCRRCVCALCPVLGAHR [TRIM14] | 2.25 ± 0.1 | 2.49 ± 0.39 |  | 
49 | HFSLRVQSRANGVKYPELVLEHSL [PCDHGA10] | 2.35 ± 0.29 | 2.27 ± 0.35 |  | 
50 | SRLMVVVKMDSSIQPGPFRAVLKY [RHOBTB2] | 2.9 ± 0.56 | 2.79 ± 0.53 |  | 
51 | YPSLYYPEMYILKGGYKEFFPQHP [CDC25B] | 1.78 ± 0.2 | 2.12 ± 0.43 |  | 
52 | TLHGVVNESTVCLMSYERRQILHL [TENT5D] | 2.35 ± 0.54 | 2.44 ± 0.4 |  | 
53 | SNFHINVEESVDGQVVSSHKREI [KRT15] |  |  | 2.91 ± 1 | 3.83 ± 1
54 | SYSRGYSYHDGYGEALGRDHSEHL [RBMY1A1] | 3.5 ± 0.28 | 3.38 ± 0.26 |  | 
55 | HGCEYSCVNMDRSFACQCPEGHVL [MATN2] | 3.57 ± 0.29 | 3.61 ± 0.26 |  | 
56 | LLSGAFKKRRLPPVHIHPAFARQA [FOXJ1] | 2.21 ± 0.1 | 2.54 ± 0.36 |  | 
57 | DGENVFTGQSKIYSYMSPNKCSGM [KMT5A] | 3.3 ± 0.29 | 3.3 ± 0.14 |  | 
58 | MRGPEPGPQPTMEGDVLDTLEALG [FAM98B] | 5.19 ± 0.34 | 5.087 ± 0.039 |  | 
59 | HAIYSLSYPMRRSYRYKLLNWAYQ [STEAP1] | 2.33 ± 0.71 | 2.63 ± 0.61 |  | 
60 | AFLKLAKQRSVCTWGKNKPGIGAV [FAN1] | 2.76 ± 0.4 | 2.3 ± 0.48 |  | 
61 | LVHVMERSLSPSLSSVDMRMTSSP [RAD54B] | 2.51 ± 0.34 | 2.58 ± 0.36 |  | 
62 | PYFLFQHWATGYSKSSHPLIRSLF [SOAT1] | 2.46 ± 0.51 | 2.34 ± 0.74 |  | 
63 | IREEGRCSSSDDDTDVDMEGLRRR [PBXIP1] | 5.37 ± 0.25 | 5.42 ± 0.36 |  | 
64 | SSECHTSGFVGSGGWFCEGSFNGS [KRT36] | 3.23 ± 0.17 | 3.06 ± 0.37 |  | 
65 | REDQLDTVLAVLEDSSRDIREALH [INTS4] | 4.21 ± 0.36 | 4.38 ± 0.34 |  | 
66 | ADDESETPEELEEEIPVVICAAAG [GLT8D2] | 5.582 ± 0.029 | 5.5 ± 0.35 |  | 
67 | CTGLKKAHRTEFYRNLTHNPPSDF [STK38L] | 2.85 ± 0.09 | 2.87 ± 0.28 |  | 
68 | LVGLTVIGAFLNLVVLRFLTMNSE [KCNK9] | 3.42 ± 0.46 | 3.42 ± 0.25 |  | 
69 | LKQLKHPNLVNLIEVFRRKRKMHL [CDKL4] | 2.44 ± 0.43 | 2.58 ± 0.3 |  | 

Row | Sequence | protein stability index [1] | protein stability index [2] | protein stability index [3] | protein stability index [4]
70 | SNWYITFQSDTDAQQAFILKRRS [LARP4] |  |  | 2.93 ± 0.3 | 2.21 ± 0.41
71 | LCKEMVPLAEQTPLTLQSQPKEPQ [ZSCAN9] | 5 ± 0.13 | 5.04 ± 0.24 |  | 
72 | ERLKQEIERLTREVEATRRALIDR [DDIT3] | 3.6 ± 0.24 | 3.56 ± 0.29 |  | 
73 | PVDPDSQADTVHSNPELDVLLLGS [DNAAF3] | 4.95 ± 0.11 | 5 ± 0.19 |  | 
74 | CRGHTLERSVFSERTEESSAVQYF [CARM1] | 2.81 ± 0.34 | 2.92 ± 0.5 |  | 
75 | CFVLFSLTHTHTHTPNHRGINCFF [ANKRD44] | 2.66 ± 0.032 | 2.82 ± 0.5 |  | 
76 | EGSREHAFQITGVWDASRAPRGTP [PLEKHN1] | 4.34 ± 0.27 | 4.39 ± 0.26 |  | 
77 | SARYLEAALRLHRLLRDSEAFCHA [P3H4] | 2.51 ± 0.23 | 2.07 ± 0.2 |  | 
78 | SRRPLDEAVAGAEGREAPALVAAG [DENND6A] | 4.86 ± 0.35 | 5.19 ± 0.25 |  | 
79 | ISEEGHHYLIFDLVTGGELFEDIV [CAMK2A] | 2.47 ± 0.62 | 2.13 ± 0.29 |  | 
80 | ILLSKEPDGVWAYNRGEHPIFVNS [SMAD6] | 2.2 ± 0.19 | 2.44 ± 0.2 |  | 
81 | ATEPATCFPSTQKPTEPSVPVQPL [FBF1] | 4.9 ± 0.099 | 4.96 ± 0.1 |  | 
82 | QEMVQRPQPHRNRAGLDLPTIDTG [TRAF3IP2] | 4.5 ± 0.26 | 4.59 ± 0.19 |  | 
83 | MNYMPGTASLIEDIDKKHLVLLRD [LSM1] | 3.15 ± 0.16 | 3.27 ± 0.32 |  | 
84 | VPAAGGPAPKRGYSSEMKTEDELR [AUH] | 5.53 ± 0.68 | 5.9 ± 0.071 |  | 
85 | VGSGYRMSLVKRRFATGMYLVSC [FCHO1] |  |  | 2.89 ± 0.34 | 3.03 ± 0.4
86 | DGASVNENHEIYMKDSMSAAEVGT [EPB41L3] | 5.31 ± 0.28 | 5.34 ± 0.32 |  | 
87 | SNTRDRYGRSWESYSSCGDFHYCD [RBMY1A1] | 2.73 ± 0.27 | 2.91 ± 0.54 |  | 
88 | STPKLTSRSAAQDLDRMGVMTLPS [PPFIA4] | 4.03 ± 0.28 | 3.97 ± 0.056 |  | 
89 | SDVVPEKERPLVIGHFNTASGVGF [MFSD9] | 3.49 ± 0.26 | 3.52 ± 0.25 |  | 
